We go through two substances from PMC2636890.

For test [1], the target named is soluble recombinant form of HCV E2 glycoprotein (sE2), derived from H77-E2, harbouring a His-tag (UniProt P27958). Briefly: flow cytometry on cells (sE2 binding). Particulars: BRL3A cells expressing only the indicated SR-BI mutant; sE2-containing medium vs. sE2-free medium; mean±SD, n = 3; parent: est. 100; read off a plot. Background: In flow cytometry, cells or beads pass a laser one at a time.

The target of test [2] is SR-BI-Short, a shorter isoform of SR-BI produced by alternative splicing that removes 100 amino acids of the ectodomain (human) (UniProt Q8WTV0).
Sequence of UniProt Q8WTV0 (Q8WTV0 other isoform, or with tags, fused parts or gaps): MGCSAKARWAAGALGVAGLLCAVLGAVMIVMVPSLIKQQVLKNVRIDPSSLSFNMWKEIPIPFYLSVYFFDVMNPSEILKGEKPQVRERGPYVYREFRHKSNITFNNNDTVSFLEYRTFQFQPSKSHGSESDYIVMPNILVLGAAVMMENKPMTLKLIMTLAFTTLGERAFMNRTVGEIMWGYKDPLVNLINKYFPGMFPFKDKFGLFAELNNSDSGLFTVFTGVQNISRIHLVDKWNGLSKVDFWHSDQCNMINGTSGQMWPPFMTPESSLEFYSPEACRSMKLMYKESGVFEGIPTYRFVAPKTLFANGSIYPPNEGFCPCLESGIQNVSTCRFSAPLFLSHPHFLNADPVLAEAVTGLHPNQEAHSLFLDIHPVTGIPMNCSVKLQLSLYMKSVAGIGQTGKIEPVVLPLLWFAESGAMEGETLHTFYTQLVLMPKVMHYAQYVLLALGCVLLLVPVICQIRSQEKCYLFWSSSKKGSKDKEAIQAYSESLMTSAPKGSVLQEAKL

On to “human scavenger receptor class B type I (SR-BI), wild type (from UniProt Q8WTV0-2) SES”, for which the percent of parent (% of wt SR-BI (set to 100)) in test [1] was 100.
The substance “soluble recombinant form of HCV E2 glycoprotein (sE2), derived from H77-E2, harbouring a His-tag (from UniProt P27958 384-661) (domain or fragment)” showed an entry of HCVpp (H77 E1E2) into BRL3A-CD81-CLDN1 cells expressing the SR-BI form, fold reduction against wt SR-BI in test [2] of more than 10 fold.
